{"source": "patent US20250073311A1", "about": "“DOSAGE REGIME” (ZEALAND PHARMA A/S, priority 2021, published 2025)", "binders": {"B1": {"name": "Compound 5 (peptide)", "peptide": "H-H[Aib]EGSFTSELATILDK([γGlu-C18 diacid])KAARDFIAWLIEHKITD-OH", "SMILES": "CC[C@H](C)[C@H](NC(=O)[C@H](Cc1ccccc1)NC(=O)[C@H](CC(=O)O)NC(=O)[C@H](CCCNC(=N)N)NC(=O)[C@H](C)NC(=O)[C@H](C)NC(=O)[C@H](CCCCN)NC(=O)[C@H](CCCCNC(=O)CC[C@H](NC(=O)CCCCCCCCCCCCCCCCC(=O)O)C(=O)O)NC(=O)[C@H](CC(=O)O)NC(=O)[C@H](CC(C)C)NC(=O)[C@@H](NC(=O)[C@@H](NC(=O)[C@H](C)NC(=O)[C@H](CC(C)C)NC(=O)[C@H](CCC(=O)O)NC(=O)[C@H](CO)NC(=O)[C@@H](NC(=O)[C@H](Cc1ccccc1)NC(=O)[C@H](CO)NC(=O)CNC(=O)[C@H](CCC(=O)O)NC(=O)C(C)(C)NC(=O)[C@@H](N)Cc1c[nH]cn1)[C@@H](C)O)[C@@H](C)O)[C@@H](C)CC)C(=O)N[C@@H](C)C(=O)N[C@@H](Cc1c[nH]c2ccccc12)C(=O)N[C@@H](CC(C)C)C(=O)N[C@H](C(=O)N[C@@H](CCC(=O)O)C(=O)N[C@@H](Cc1c[nH]cn1)C(=O)N[C@@H](CCCCN)C(=O)N[C@H](C(=O)N[C@H](C(=O)N[C@@H](CC(=O)O)C(=O)O)[C@@H](C)O)[C@@H](C)CC)[C@@H](C)CC"}}, "note": "Numbered stars: 1 amine (or outer) side, 2 acyl side, 3 side chain; on linkers, the order of the positions; unused ones are H or OH. Square brackets hold non-standard residues; d marks the D form. Side chains are listed from the residue outwards. * marks the point of attachment. C20 diacid = O=C(O)CCCCCCCCCCCCCCCCCCC(=O)*; C18 diacid = O=C(O)CCCCCCCCCCCCCCCCC(=O)*; γGlu = O=C(O)[C@H](CCC(=O)[*:2])N[*:1]; AEEA = NCCOCCOCC(=O)O; Aib = CC(C)(N)C(=O)O"}
{"target": "human glucagon-like peptide 1 receptor (GLP-1R) (human, UniProt P43220)", "experiment": "cell-based or functional assay", "units": {"EC50 GLP-1 (nM), cAMP AlphaScreen": "nM"}}
{"binder": "H-H[Aib]EGTFTSELATILDEQAAK([AEEA-AEEA-KEK-γGlu-C20 diacid])DFIAWLIEHKITD-OH", "note": "[Compound 67]", "EC50 GLP-1 (nM), cAMP AlphaScreen": 0.16}
{"binder": "H-H[Aib]EGTFTSELATILDK([γGlu-C18 diacid])KAARDFIAWLIEHKITD-OH", "note": "[Compound 6]", "EC50 GLP-1 (nM), cAMP AlphaScreen": 0.058}
{"binder": "H-H[Aib]EGTFTSELATILDEQAAK([AEEA-KEK-γGlu-C20 diacid])DFIAWLIEHKITD-OH", "note": "[Compound 65]", "EC50 GLP-1 (nM), cAMP AlphaScreen": 0.13}
{"binder": "H-H[Aib]EGSFTSELATILDEQAAK([AEEA-KEK-γGlu-C20 diacid])DFIAWLIEHKITD-OH", "note": "[Compound 64]", "EC50 GLP-1 (nM), cAMP AlphaScreen": 0.49}
{"binder": "H-H[Aib]EGSFTSELATILDEQAAK([AEEA-AEEA-KEK-γGlu-C20 diacid])DFIAWLIEHKITD-OH", "note": "[Compound 66]", "EC50 GLP-1 (nM), cAMP AlphaScreen": 0.65}
{"binder": "H-H[Aib]EGTFSSELATILDK([γGlu-C18 diacid])KAARDFIAWLIEHKITD-OH", "note": "[Compound 4]", "EC50 GLP-1 (nM), cAMP AlphaScreen": 0.66}
{"binder": "H-H[Aib]EGSFTSELATILDAKAAK([AEEA-KEK-γGlu-C20 diacid])DFIAWLIEHKITD-OH", "note": "[Compound 68]", "EC50 GLP-1 (nM), cAMP AlphaScreen": 0.084}
{"binder": "B1", "EC50 GLP-1 (nM), cAMP AlphaScreen": 0.17}
{"target": "T1, human GLP-2 receptor (hGLP2-R) (human, UniProt O95838)", "T1 sequence": "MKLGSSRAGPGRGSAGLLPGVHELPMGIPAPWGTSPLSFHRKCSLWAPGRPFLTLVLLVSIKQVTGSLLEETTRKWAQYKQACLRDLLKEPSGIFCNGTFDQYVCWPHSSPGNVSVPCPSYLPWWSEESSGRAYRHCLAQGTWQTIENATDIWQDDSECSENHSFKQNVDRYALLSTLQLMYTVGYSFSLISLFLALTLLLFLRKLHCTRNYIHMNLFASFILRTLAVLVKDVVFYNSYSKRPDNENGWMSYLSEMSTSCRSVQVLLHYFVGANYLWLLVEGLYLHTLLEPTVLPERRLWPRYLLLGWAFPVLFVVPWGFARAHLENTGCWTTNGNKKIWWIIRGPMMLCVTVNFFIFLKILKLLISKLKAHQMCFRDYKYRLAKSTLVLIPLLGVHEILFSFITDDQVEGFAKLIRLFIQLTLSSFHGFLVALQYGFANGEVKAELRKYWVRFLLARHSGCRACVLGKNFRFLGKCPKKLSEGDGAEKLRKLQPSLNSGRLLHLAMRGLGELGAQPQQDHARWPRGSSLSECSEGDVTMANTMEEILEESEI", "experiment": "cell-based or functional assay", "units": {"EC50 GLP-2 (nM), cAMP AlphaScreen": "nM"}}
{"binder": "H-H[Aib]EGTFTSELATILDEQAAK([AEEA-AEEA-KEK-γGlu-C20 diacid])DFIAWLIEHKITD-OH", "note": "[Compound 67]", "EC50 GLP-2 (nM), cAMP AlphaScreen": 0.22}
{"binder": "H-H[Aib]EGTFTSELATILDK([γGlu-C18 diacid])KAARDFIAWLIEHKITD-OH", "note": "[Compound 6]", "EC50 GLP-2 (nM), cAMP AlphaScreen": 0.12}
{"binder": "H-H[Aib]EGTFTSELATILDEQAAK([AEEA-KEK-γGlu-C20 diacid])DFIAWLIEHKITD-OH", "note": "[Compound 65]", "EC50 GLP-2 (nM), cAMP AlphaScreen": 0.35}
{"binder": "H-H[Aib]EGSFTSELATILDEQAAK([AEEA-KEK-γGlu-C20 diacid])DFIAWLIEHKITD-OH", "note": "[Compound 64]", "EC50 GLP-2 (nM), cAMP AlphaScreen": 0.2}
{"binder": "H-H[Aib]EGSFTSELATILDEQAAK([AEEA-AEEA-KEK-γGlu-C20 diacid])DFIAWLIEHKITD-OH", "note": "[Compound 66]", "EC50 GLP-2 (nM), cAMP AlphaScreen": 0.18}
{"binder": "H-H[Aib]EGTFSSELATILDK([γGlu-C18 diacid])KAARDFIAWLIEHKITD-OH", "note": "[Compound 4]", "EC50 GLP-2 (nM), cAMP AlphaScreen": 0.087}
{"binder": "H-H[Aib]EGSFTSELATILDAKAAK([AEEA-KEK-γGlu-C20 diacid])DFIAWLIEHKITD-OH", "note": "[Compound 68]", "EC50 GLP-2 (nM), cAMP AlphaScreen": 0.1}
{"binder": "B1", "EC50 GLP-2 (nM), cAMP AlphaScreen": 0.063}
